Source: the supplement of paper PMC12042874
± gives the uncertainty stated by the source.

Assay: amyloid nucleation score (Sup35N fusion, yeast selection) (log enrichment); library NNK2; higher = more nucleation; inactive = no reads after selection
Outline: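 DiMSum was used to calculate nucleation scores as log enrichment of output over input reads, centred on the mode score of non-aggregating sequences. Sequences with fewer than 100 input reads were not scored. Input and output came from Illumina sequencing of plasmid inserts in psi-negative yeast expressing peptides of 20 random codons fused to Sup35N, induced 24 hours with 100 μM copper sulfate and then grown 7 days at 30°C on medium lacking adenine and uracil.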

Going from SKTMSKMNKDQLQHSMLHDP to SKTYRPCARLSFEHGRCNLV, the amyloid nucleation score rises from -0.453 ± 0.45 to 3.68 ± 0.11.

Compared with SKVFCTIFAWVVVE, SLACGNEKRFVMILSHI is lower in amyloid nucleation score: 7.038 ± 0.033 for the first, 0.641 ± 0.74 for the second.

SLADDSGNRT and SLAHQAFAEPSWTKVEE are within error of each other in amyloid nucleation score: -0.289 ± 0.43 for the first, 0.278 ± 0.26 for the second.

Compared with SLAIAVNAMIHNIPADIWMH, SLARYAGGFRARSGKIFSVC is lower in amyloid nucleation score: 6.27 ± 0.083 for the first, 0.802 ± 0.22 for the second.

SLCMHTAVFHS and SLDECHLSRRTNS are within error of each other in amyloid nucleation score: 0.092 ± 0.32 for the first, 0.411 ± 0.34 for the second.

Going from SLENWLCAVPLCGESLEKVW to SLFFFR, the amyloid nucleation score rises from 0.469 ± 0.41 to 5.03 ± 0.06.

First: SLGCSAFR
Second: SLGEKRFACLATSCCADDCT
The amyloid nucleation score of the first is lower: -1.62 ± 0.62 for the first, 0.508 ± 0.2 for the second.

First: SLKSAFQMKVISYLVEWLVS
Second: SLLESLVAMLVGVQRVVDSR
The amyloid nucleation score of the first is lower: -0.6 ± 0.36 for the first, 1.03 ± 0.51 for the second.

Going from SLLIFMSFYYWLQVSYRPPR to SLLRLIFMLRRGDIHGYCRG, the amyloid nucleation score rises from -1.3 ± 1.1 to 5.84 ± 0.084.

SLMDLDFPLTSR and SLMLQ are within error of each other in amyloid nucleation score: -0.334 ± 0.61 for the first, 0.706 ± 0.81 for the second.

Going from SLNISCYWHLKFVMRAWHTW to SLNLGRLYDLSMMLAWLGHQ, the amyloid nucleation score rises from -0.465 ± 1 to 2.16 ± 0.17.

SLNPTRSWMRFNINKAHFLL and SLQFPISVNTYGDESCNSTV are within error of each other in amyloid nucleation score: -0.204 ± 0.48 for the first, -0.424 ± 1.1 for the second.

Compared with SLRIYGYMDRKSPKESSNFR, SLRLCLDTMEFRVFKNLGRV is higher in amyloid nucleation score: 0.975 ± 0.37 for the first, 1.45 ± 0.099 for the second.

Going from SLSGRLMNFYIMQNSIPTWW to SLSHRADACVTS, the amyloid nucleation score falls from 6.792 ± 0.041 to -0.647 ± 0.64.

Going from SLSKKMFRCRS to SLSQMRLSVLSNKDHSIEL, the amyloid nucleation score rises from 3.4 ± 0.12 to 7.964 ± 0.056.

Compared with SLSRNGTVFARFRVSTSRCL, SLSWQNPCLMFMDNMADMIS is lower in amyloid nucleation score: 4.23 ± 0.057 for the first, -0.006 ± 0.54 for the second.

Compared with SLSYATTFF, SLTVFHLKYMSQNIKAE is lower in amyloid nucleation score: 0.476 ± 0.24 for the first, -0.797 ± 1 for the second.

Compared with SLVSKIRLRGAWINSGVKTG, SLVTLWLGANAR is lower in amyloid nucleation score: 0.923 ± 0.17 for the first, 0.175 ± 0.26 for the second.

SLWRNHMMQ and SLWTYRARTKGCHYVHSVLM are within error of each other in amyloid nucleation score: 0.746 ± 0.4 for the first, 0.164 ± 1.1 for the second.

SLWYFCRPIGGI and SMADFIV are within error of each other in amyloid nucleation score: -0.391 ± 0.29 for the first, -0.767 ± 0.76 for the second.

Going from SMFNCNWYCGCCMCNLGCLA to SMGFSSVPHSYTCTVEQG, the amyloid nucleation score falls from 7.334 ± 0.035 to 6.06 ± 0.07.

First: SMNVYVDGFCWLAHVLNVVW
Second: SMPWYMYCIVYYVDVYCCNI
The amyloid nucleation score of the first is higher: 6.928 ± 0.035 for the first, 6.566 ± 0.039 for the second.

First: SMRFVLAF
Second: SMTRLLGRDGYTREYSSSSR
The amyloid nucleation score of the first is lower: -1.92 ± 0.77 for the first, 0.834 ± 0.55 for the second.

First: SMVKKLQMESPAFSVGIFWV
Second: SMVVGMGSCPNVTRGAGLKR
The amyloid nucleation score of the first is higher: 7.74 ± 0.085 for the first, 1.06 ± 0.17 for the second.

Compared with SMYLTETRLHCHDWSAAAWG, SNCSLMGYCMYAYNGSDTGC is higher in amyloid nucleation score: 0.663 ± 0.21 for the first, 4.58 ± 0.11 for the second.

SNCSPLATMDCSPDFMSTF and SNIGCRKIWTSLRSMDLIIG are within error of each other in amyloid nucleation score: -0.121 ± 1.1 for the first, -0.006 ± 0.65 for the second.

Compared with SNIRISTADDSNSFLPFSSA, SNLEHSGWRTRMRWGL is higher in amyloid nucleation score: -0.315 ± 0.43 for the first, 5.5 ± 0.079 for the second.

SNLSRDESRVGSTGEQGDGG and SNMASIFTPKRSFNSEVENQ are within error of each other in amyloid nucleation score: -0.38 ± 0.55 for the first, -1.31 ± 0.61 for the second.

Compared with SNRCLIIFLILC, SNRRKSAGDSFVRWMCCLT is lower in amyloid nucleation score: 5.92 ± 0.077 for the first, 2.61 ± 0.15 for the second.

SNSHNSRSIAY and SNSQMKAAMVGCNLRGMEQA are within error of each other in amyloid nucleation score: 0.475 ± 0.57 for the first, 0.689 ± 0.57 for the second.

SNVSKYTKRGDM and SPALKPLGRMEYGVSGR are within error of each other in amyloid nucleation score: -0.184 ± 0.33 for the first, 0.072 ± 0.29 for the second.

Going from SPCLDGDRHVGSQMLSPLSW to SPGIITCGYKLLDG, the amyloid nucleation score rises from 0.919 ± 0.33 to 1.69 ± 0.27.

SPRRFLMKQGIHQVTLAHCH and SPTGPMYRNLLSKKPYVR are within error of each other in amyloid nucleation score: -0.342 ± 0.76 for the first, -0.909 ± 0.35 for the second.

SPWCPQLSTGGCSNLGSLRR and SPYHKANGHKNVARLYFRWR are within error of each other in amyloid nucleation score: 0.612 ± 0.31 for the first, 0.731 ± 0.41 for the second.

SQFLIMTEDR and SQIWFTVTYGQYCYYIVSL are within error of each other in amyloid nucleation score: 0.123 ± 0.34 for the first, -0.33 ± 0.33 for the second.

Compared with SQSKDMMCLSGSYSYYTACA, SQVGTW is higher in amyloid nucleation score: -1.21 ± 0.78 for the first, 0.795 ± 0.41 for the second.

Going from SREVRNANPSSGDDGSIRVE to SRFLCVKTTVVALI, the amyloid nucleation score rises from -0.02 ± 1.1 to 4.66 ± 0.047.

SRFLDGSLLPKTNGLSQEMV and SRFRA are within error of each other in amyloid nucleation score: 0.122 ± 1.1 for the first, 0.357 ± 0.27 for the second.

First: SRGLSGNSSASLEKLNRL
Second: SRHWLNDVIFLSHSTSGQHW
The amyloid nucleation score of the first is lower: 0.072 ± 0.63 for the first, 1.49 ± 0.18 for the second.

First: SRIFVRYTLAKLVDFSCPES
Second: SRLCFWSVGFNKTQQVEPVR
The amyloid nucleation score of the first is higher: 0.61 ± 0.46 for the first, -1.33 ± 1.1 for the second.

SRLMCNNVTSLLVFVFIGHK and SRMFVFNVGVIEFWKLGGYN are within error of each other in amyloid nucleation score: -0.337 ± 0.74 for the first, -0.716 ± 0.64 for the second.

SRRRLVPSLLTRIISGVRGR and SRSLNWPSAGKLKSDYEFVV are within error of each other in amyloid nucleation score: -0.877 ± 0.55 for the first, -0.675 ± 0.3 for the second.

Compared with SRSSG, SRSVFIRSLAVITVIWILT is lower in amyloid nucleation score: 5.17 ± 0.058 for the first, 1.34 ± 0.13 for the second.

Compared with SRTWAARNFLFRWVSPANFT, SRVFRSRMDGPFQWSGMGEV is higher in amyloid nucleation score: 0.119 ± 0.74 for the first, 2.24 ± 0.076 for the second.

SRVVGNRMYRSGLSRSSLLH and SRVWFVNPAPYPADTSELAK are within error of each other in amyloid nucleation score: -0.263 ± 0.65 for the first, 0.509 ± 0.8 for the second.

SRWLSQSPDHSWGGQTYGMS and SSAFFSFNWADKWCMLMCLV are within error of each other in amyloid nucleation score: -0.023 ± 0.63 for the first, -1.41 ± 1.1 for the second.

Going from SSCIFYFTIRTNQTYLGI to SSCRTSSWLALVWFGLGVSG, the amyloid nucleation score falls from 6.93 ± 0.06 to 0.177 ± 0.19.

First: SSFCKPLKVRWLGVIVQLSV
Second: SSFGGGCSVCRMWGGFLLDG
The amyloid nucleation score of the first is lower: -0.872 ± 0.45 for the first, 4.4 ± 0.059 for the second.

SSFLDRAIGGEAGRCSVWMK and SSFYTSGYPQNVSARGLGAE are within error of each other in amyloid nucleation score: 0.856 ± 0.24 for the first, 0.627 ± 0.56 for the second.

SSGCS and SSGFPE are within error of each other in amyloid nucleation score: -0.021 ± 0.5 for the first, -0.846 ± 0.42 for the second.

Going from SSIINMTDAVGWFLELKNGE to SSIVSSPVCPLCGWGWF, the amyloid nucleation score rises from 0.177 ± 0.37 to 5.55 ± 0.069.

SSLCGNCLGVEVVEQVISCR and SSLGSSGAEKSRIGYIVIER are within error of each other in amyloid nucleation score: -0.12 ± 0.23 for the first, 0.261 ± 0.77 for the second.

Going from SSMDFVHCSWAVWHLGSFLC to SSNVK, the amyloid nucleation score rises from -1.01 ± 0.78 to 0.685 ± 0.4.

Compared with SSRVDLLLLVETAFARSRIW, SSRVDVVISHQREAIGSRQC is higher in amyloid nucleation score: 3.31 ± 0.08 for the first, 5.11 ± 0.077 for the second.

SSSEFDPSSGSCLYT and SSSVSRPRCFFRSWFYIHVR are within error of each other in amyloid nucleation score: -0.847 ± 0.34 for the first, -1.21 ± 0.49 for the second.

Going from SSVIHYRT to SSWAGVMYIVHNTKVHSYTI, the amyloid nucleation score rises from 0.038 ± 0.8 to 3.19 ± 0.064.

SSWVFITFSYVMRSQVYHLK and SSYGWSGTC are within error of each other in amyloid nucleation score: -1.12 ± 0.49 for the first, -0.833 ± 0.63 for the second.

Substance SSYRRLTQSTLRVDRHRLFY has an amyloid nucleation score of 0.732 ± 0.4.

In the case of SMSMYTPNFFDFVVVRPTIY, the amyloid nucleation score is reported as “inactive”.
With SMYDAGIFVGYCLRGFLYDC the amyloid nucleation score was “inactive”.
For SNGINN, the amyloid nucleation score was “inactive”.
With SNHLIVMISVFYFKSVRI the amyloid nucleation score was “inactive”.
For SNSCTPAGLETGNLK, the amyloid nucleation score was “inactive”.
With SRPTKYSKWILMPPCY the amyloid nucleation score was “inactive”.
In the case of SSGLTRFKYRRLRSIVFELG, the amyloid nucleation score is reported as “inactive”.
With SSPGSCIMSENWVNSSWRFT the amyloid nucleation score was “inactive”.
In the case of SSVHPPEPRINFFSSDGCIA, the amyloid nucleation score is reported as “inactive”.
In the case of STALAFYP, the amyloid nucleation score is reported as “inactive”.
For STCFLTFVY, the amyloid nucleation score was “inactive”.
